From patent US20130052670A1 (MERCK, published 2013)

Legend:
[1] = molecular target: T1, Aβ oligomers (ADDLs, amyloid-β derived diffusible ligands) prepared from Aβ42 (UniProt P05067 672-713); test: one-sided ELISA, plate coated with Aβ oligomers (50 pmol/well), 19.3 titrated, anti-human IgG-AP, luminescence
T1 construct: domain: amyloid β peptide 1-42; Heterogeneous mixture of multimers; number of chains not defined; Concentrations are calculated on the Aβ monomer molecular weight (MW 4513); also called ADDL species of Aβ oligomers; Aβ oligomer standards
T1 sequence (P05067 672-713 limits assumed): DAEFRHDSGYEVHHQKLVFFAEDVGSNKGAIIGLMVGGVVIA
Method: (§1) Next day, plates were washed five times with PBS+0.05% Tween-20 and blocked overnight with Casein blocking buffer (Thermo Scientific, Waltham, Mass.) and 0.05% Tween-20. […] After two hours at room temperature incubation, the plates were washed and alkaline phosphatase conjugated anti-human IgG (ThermoScientific, Waltham, Mass.) was added at 0.08 μg/ml. After incubation for 45 minutes at room temperature, the plates were washed and Tropix CDP star (Applied Biosystems, Foster City, Calif.) was added. Luminescence was detected after 30 minutes on an EnVision® plate reader (PerkinElmer, Waltham, Mass.). Curve fits were completed using GraphPad Prism (GraphPad Software, Inc., San Diego, Calif.) software.

[2] = molecular target: T2, Aβ40 monomer (amyloid β peptide 1-40) (UniProt P05067 672-711); test: one-sided ELISA, plate coated with Aβ40 monomer (100 pmol/well), 19.3 titrated, anti-human IgG-AP, luminescence
T2 construct: domain: amyloid β peptide 1-40; also called monomeric Aβ40; Aβ monomer
T2 sequence (P05067 672-711 limits assumed): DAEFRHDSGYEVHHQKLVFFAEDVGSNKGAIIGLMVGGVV
Method: as §1

[3] = molecular target: T1, Aβ oligomers (ADDLs, amyloid-β derived …); test: one-sided ELISA on coated plates
Method: as §1

EC50 [1]: 1.6 nM
EC50 [2]: 4.3 nM
fold greater potency than for Aβ40 monomer [3]: ~3.7 fold
B1: anti-Aβ oligomer antibody 19.3 (antibody, V domains shown)
VH: EVQLVESGGGLVQPGGSLRLSCAASGFTFSSFGMHWVRQAPGKGLEWVAYISRGSSTIYYADTVKGRFTISRDNAKNSLYLQMNSLRAEDTAVYYCARGITTALDYWGQGTLVTVSS
VL: DVVMTQSPLSLPVTPGEPASISCRSSQSIVHSNGNTYLEWYLQKPGQSPQLLIYKASNRFSGVPDRFSGSGSGTDFTLKISRVEAEDVGVYYCFQGSRLGPSFGQGTKLEIK
notes: In the sandwich assays it was coated on plates or covalently coupled to paramagnetic micro-particle beads; not shown: human immunoglobulin kappa light chain constant region
